Among the data in PMC12098294 are decrease of MICA binding against the NKG2DL single-targeting CAR values, retold here.

Assay [1] addresses CD19/NKG2DL tandem CAR with a short hinge (12 amino acids) derived from CD8α (UniProt P26718). The assay can be described thus: flow cytometry on cells; CAR-transduced primary T-cells incubated with rhMICA-Avi (detected with Alexa Fluor 647 streptavidin) and/or rhCD19-Fc (detected with anti-human IgG-Fc antibody); MFI read in a subpopulation expressing the CD34 marker at similar level; one ligand alone or both together.

The target of assay [2] is CD19/NKG2DL tandem CAR with a short hinge (12 amino acids) derived from IgG4 (UniProt P26718). The assay is described as above.

B1: recombinant human Biotinylated Human MICA Protein, His,Avitag (ligand)
chain: EPHSLRYNLTVLSWDGSVQSGFLTEVHLDGQPFLRCDRQKCRAKPQGQWAEDVLGNKTWDRETRDLTGNGKDLRMTLAHIKDQKEGLHSLQEIRVCEIHEDNSTRSSQHFYYDGELFLSQNLETKEWTMPQSSRAQTLAMNVRNFLKEDAMKTKTHYHAMHADCLQELRRYLKSGVVLRRTVPPMVNVTRSEASEGNITVTCRASGFYPWNITLSWRQDGVSLSHDTQQWGDVLPDGNGTYQTWVATRICQGEEQRFTCYMEHSGNHSTHPVPSGKVLVLQSHW
modifications: biotin (biotinylated protein)
With B1, the decrease of MICA binding against the NKG2DL single-targeting CAR in assay [1] and in assay [2] was 30% in each case.
